# System: Escherichia coli TOP10
# Test: shrunken log2 fold change of peptide-encoding DNA abundance (4.5 h post-induction vs induction); higher = less antimicrobial activity (less host growth inhibition)
# Conditions: time post-induction: 4.5 h; library: site-saturation at positions 5, 18, 19, 20
# 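Note: peptides expressed intracellularly from a pBAD plasmid library in pooled LB shake-flask culture, induced with 0.3% L-arabinose, DNA abundance read by NGS, three biological replicates, DESeq2 with apeglm shrinkage.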
row,Sequence,shrunken log2 fold change
1,RRIRSRPPRLPRPRPRPGYHPRP,-0.512
2,RRIRSRPPRLPRPRPRPGYPPRP,-0.209
3,RRIRSRPPRLPRPRPRPGYSPRP,-0.407
4,RRIRSRPPRLPRPRPRPHAAPRP,0.331
5,RRIRSRPPRLPRPRPRPHDKPRP,-0.214
6,RRIRSRPPRLPRPRPRPHDVPRP,-0.0229
7,RRIRSRPPRLPRPRPRPHEFPRP,-0.315
8,RRIRSRPPRLPRPRPRPHFAPRP,0.0285
9,RRIRSRPPRLPRPRPRPHGSPRP,-0.0567
10,RRIRSRPPRLPRPRPRPHHAPRP,-0.41
11,RRIRSRPPRLPRPRPRPHHVPRP,-0.243
12,RRIRSRPPRLPRPRPRPHICPRP,-0.127
13,RRIRSRPPRLPRPRPRPHIHPRP,0.966
14,RRIRSRPPRLPRPRPRPHINPRP,-0.607
15,RRIRSRPPRLPRPRPRPHITPRP,-0.734
16,RRIRSRPPRLPRPRPRPHIVPRP,-0.243
17,RRIRSRPPRLPRPRPRPHLFPRP,-0.32
18,RRIRSRPPRLPRPRPRPHLGPRP,-0.385
19,RRIRSRPPRLPRPRPRPHMPPRP,-0.401
20,RRIRSRPPRLPRPRPRPHMRPRP,-0.0431
21,RRIRSRPPRLPRPRPRPHRCPRP,-0.209
22,RRIRSRPPRLPRPRPRPHRRPRP,0.0441
23,RRIRSRPPRLPRPRPRPHRVPRP,0.0316
24,RRIRSRPPRLPRPRPRPHSAPRP,-0.891
25,RRIRSRPPRLPRPRPRPHSPPRP,0.146

row,Sequence,shrunken log2 fold change
1,RRIRSRPPRLPRPRPRPHSVPRP,-0.036
2,RRIRSRPPRLPRPRPRPHTFPRP,-1.36
3,RRIRSRPPRLPRPRPRPHTVPRP,-0.218
4,RRIRSRPPRLPRPRPRPHVRPRP,0.128
5,RRIRSRPPRLPRPRPRPHYQPRP,-0.357
6,RRIRSRPPRLPRPRPRPIANPRP,-0.0897
7,RRIRSRPPRLPRPRPRPICFPRP,-0.15
8,RRIRSRPPRLPRPRPRPICNPRP,-0.0128
9,RRIRSRPPRLPRPRPRPIDCPRP,-1.27
10,RRIRSRPPRLPRPRPRPIDKPRP,-0.156
11,RRIRSRPPRLPRPRPRPIEGPRP,-0.0107
12,RRIRSRPPRLPRPRPRPIFQPRP,-0.0307
13,RRIRSRPPRLPRPRPRPIGCPRP,-0.144
14,RRIRSRPPRLPRPRPRPIGKPRP,0.0386
15,RRIRSRPPRLPRPRPRPIGYPRP,0.0746
16,RRIRSRPPRLPRPRPRPIHKPRP,-0.165
17,RRIRSRPPRLPRPRPRPIKMPRP,-0.47
18,RRIRSRPPRLPRPRPRPIKTPRP,0.000501
19,RRIRSRPPRLPRPRPRPILSPRP,-0.329
20,RRIRSRPPRLPRPRPRPILVPRP,0.0112
21,RRIRSRPPRLPRPRPRPIMCPRP,-0.572
22,RRIRSRPPRLPRPRPRPIMKPRP,-0.292
23,RRIRSRPPRLPRPRPRPINIPRP,-0.589
24,RRIRSRPPRLPRPRPRPIPTPRP,0.2
25,RRIRSRPPRLPRPRPRPIPYPRP,-0.344

row,Sequence,shrunken log2 fold change
1,RRIRSRPPRLPRPRPRPIQGPRP,-0.127
2,RRIRSRPPRLPRPRPRPIQIPRP,-0.0243
3,RRIRSRPPRLPRPRPRPIRQPRP,-0.0752
4,RRIRSRPPRLPRPRPRPISRPRP,-0.416
5,RRIRSRPPRLPRPRPRPIVLPRP,-0.639
6,RRIRSRPPRLPRPRPRPIYQPRP,-0.158
7,RRIRSRPPRLPRPRPRPKAAPRP,0.252
8,RRIRSRPPRLPRPRPRPKCFPRP,0.318
9,RRIRSRPPRLPRPRPRPKCHPRP,-0.31
10,RRIRSRPPRLPRPRPRPKERPRP,0.265
11,RRIRSRPPRLPRPRPRPKFVPRP,-0.0276
12,RRIRSRPPRLPRPRPRPKGGPRP,0.149
13,RRIRSRPPRLPRPRPRPKGNPRP,-0.144
14,RRIRSRPPRLPRPRPRPKGTPRP,-0.237
15,RRIRSRPPRLPRPRPRPKHCPRP,-0.00217
16,RRIRSRPPRLPRPRPRPKHKPRP,-0.0831
17,RRIRSRPPRLPRPRPRPKHVPRP,-0.183
18,RRIRSRPPRLPRPRPRPKIEPRP,-0.0199
19,RRIRSRPPRLPRPRPRPKIYPRP,-0.265
20,RRIRSRPPRLPRPRPRPKLVPRP,-0.0443
21,RRIRSRPPRLPRPRPRPKRMPRP,0.00691
22,RRIRSRPPRLPRPRPRPKSIPRP,-0.228
23,RRIRSRPPRLPRPRPRPKSQPRP,0.164
24,RRIRSRPPRLPRPRPRPKSYPRP,-0.231
25,RRIRSRPPRLPRPRPRPKTEPRP,-0.0689

row,Sequence,shrunken log2 fold change
1,RRIRSRPPRLPRPRPRPLCEPRP,0.0616
2,RRIRSRPPRLPRPRPRPLDVPRP,-0.21
3,RRIRSRPPRLPRPRPRPLEFPRP,-0.195
4,RRIRSRPPRLPRPRPRPLEGPRP,-0.131
5,RRIRSRPPRLPRPRPRPLEQPRP,0.0284
6,RRIRSRPPRLPRPRPRPLETPRP,-0.122
7,RRIRSRPPRLPRPRPRPLEVPRP,-0.103
8,RRIRSRPPRLPRPRPRPLGPPRP,0.0761
9,RRIRSRPPRLPRPRPRPLHDPRP,-0.0221
10,RRIRSRPPRLPRPRPRPLHQPRP,-0.248
11,RRIRSRPPRLPRPRPRPLINPRP,-0.0856
12,RRIRSRPPRLPRPRPRPLNGPRP,-0.322
13,RRIRSRPPRLPRPRPRPLPKPRP,0.493
14,RRIRSRPPRLPRPRPRPLQCPRP,0.116
15,RRIRSRPPRLPRPRPRPLQEPRP,0.144
16,RRIRSRPPRLPRPRPRPLQGPRP,-0.0686
17,RRIRSRPPRLPRPRPRPLQYPRP,-0.221
18,RRIRSRPPRLPRPRPRPLRCPRP,0.435
19,RRIRSRPPRLPRPRPRPLRMPRP,0.0358
20,RRIRSRPPRLPRPRPRPLSKPRP,-0.0737
21,RRIRSRPPRLPRPRPRPLTEPRP,0.21
22,RRIRSRPPRLPRPRPRPLVRPRP,0.0873
23,RRIRSRPPRLPRPRPRPLWWPRP,0.35
24,RRIRSRPPRLPRPRPRPLYAPRP,-0.164
25,RRIRSRPPRLPRPRPRPLYKPRP,-0.486

row,Sequence,shrunken log2 fold change
1,RRIRSRPPRLPRPRPRPMARPRP,0.101
2,RRIRSRPPRLPRPRPRPMCCPRP,0.109
3,RRIRSRPPRLPRPRPRPMCGPRP,-0.145
4,RRIRSRPPRLPRPRPRPMCPPRP,-0.0743
5,RRIRSRPPRLPRPRPRPMCYPRP,-0.0971
6,RRIRSRPPRLPRPRPRPMDQPRP,0.362
7,RRIRSRPPRLPRPRPRPMGFPRP,-0.0207
8,RRIRSRPPRLPRPRPRPMGMPRP,-0.366
9,RRIRSRPPRLPRPRPRPMGWPRP,0.358
10,RRIRSRPPRLPRPRPRPMGYPRP,-0.0075
11,RRIRSRPPRLPRPRPRPMHAPRP,0.562
12,RRIRSRPPRLPRPRPRPMHDPRP,-0.314
13,RRIRSRPPRLPRPRPRPMHPPRP,-0.0546
14,RRIRSRPPRLPRPRPRPMIKPRP,-0.464
15,RRIRSRPPRLPRPRPRPMIWPRP,0.027
16,RRIRSRPPRLPRPRPRPMIYPRP,-0.257
17,RRIRSRPPRLPRPRPRPMKFPRP,-0.0589
18,RRIRSRPPRLPRPRPRPMKIPRP,0.108
19,RRIRSRPPRLPRPRPRPMLCPRP,-0.121
20,RRIRSRPPRLPRPRPRPMLLPRP,3.53
21,RRIRSRPPRLPRPRPRPMLRPRP,0.123
22,RRIRSRPPRLPRPRPRPMMCPRP,0.0105
23,RRIRSRPPRLPRPRPRPMNCPRP,-0.0191
24,RRIRSRPPRLPRPRPRPMNYPRP,-0.162
25,RRIRSRPPRLPRPRPRPMPNPRP,-0.0112

row,Sequence,shrunken log2 fold change
1,RRIRSRPPRLPRPRPRPMSWPRP,0.0314
2,RRIRSRPPRLPRPRPRPMVYPRP,-0.111
3,RRIRSRPPRLPRPRPRPNCNPRP,-0.473
4,RRIRSRPPRLPRPRPRPNEKPRP,-0.0451
5,RRIRSRPPRLPRPRPRPNFTPRP,-0.0286
6,RRIRSRPPRLPRPRPRPNFVPRP,-0.0465
7,RRIRSRPPRLPRPRPRPNFYPRP,-0.252
8,RRIRSRPPRLPRPRPRPNGNPRP,-0.384
9,RRIRSRPPRLPRPRPRPNIHPRP,0.829
10,RRIRSRPPRLPRPRPRPNIMPRP,-0.49
11,RRIRSRPPRLPRPRPRPNKAPRP,0.0174
12,RRIRSRPPRLPRPRPRPNKHPRP,-0.507
13,RRIRSRPPRLPRPRPRPNLSPRP,-0.425
14,RRIRSRPPRLPRPRPRPNPQPRP,0.126
15,RRIRSRPPRLPRPRPRPNQAPRP,-0.169
16,RRIRSRPPRLPRPRPRPNRCPRP,0.173
17,RRIRSRPPRLPRPRPRPNRMPRP,0.309
18,RRIRSRPPRLPRPRPRPNSAPRP,-0.35
19,RRIRSRPPRLPRPRPRPNTRPRP,-0.186
20,RRIRSRPPRLPRPRPRPNTVPRP,-0.308
21,RRIRSRPPRLPRPRPRPNTWPRP,-0.637
22,RRIRSRPPRLPRPRPRPNVIPRP,0.0185
23,RRIRSRPPRLPRPRPRPNWEPRP,0.015
24,RRIRSRPPRLPRPRPRPNWQPRP,0.0694
25,RRIRSRPPRLPRPRPRPPAIPRP,0.413
